Data reported in article PMC10716779.

Target: Full-length rat neuronal nitric oxide synthase (nNOS) (rat) (UniProt P29476)
Sequence (P29476 whole entry): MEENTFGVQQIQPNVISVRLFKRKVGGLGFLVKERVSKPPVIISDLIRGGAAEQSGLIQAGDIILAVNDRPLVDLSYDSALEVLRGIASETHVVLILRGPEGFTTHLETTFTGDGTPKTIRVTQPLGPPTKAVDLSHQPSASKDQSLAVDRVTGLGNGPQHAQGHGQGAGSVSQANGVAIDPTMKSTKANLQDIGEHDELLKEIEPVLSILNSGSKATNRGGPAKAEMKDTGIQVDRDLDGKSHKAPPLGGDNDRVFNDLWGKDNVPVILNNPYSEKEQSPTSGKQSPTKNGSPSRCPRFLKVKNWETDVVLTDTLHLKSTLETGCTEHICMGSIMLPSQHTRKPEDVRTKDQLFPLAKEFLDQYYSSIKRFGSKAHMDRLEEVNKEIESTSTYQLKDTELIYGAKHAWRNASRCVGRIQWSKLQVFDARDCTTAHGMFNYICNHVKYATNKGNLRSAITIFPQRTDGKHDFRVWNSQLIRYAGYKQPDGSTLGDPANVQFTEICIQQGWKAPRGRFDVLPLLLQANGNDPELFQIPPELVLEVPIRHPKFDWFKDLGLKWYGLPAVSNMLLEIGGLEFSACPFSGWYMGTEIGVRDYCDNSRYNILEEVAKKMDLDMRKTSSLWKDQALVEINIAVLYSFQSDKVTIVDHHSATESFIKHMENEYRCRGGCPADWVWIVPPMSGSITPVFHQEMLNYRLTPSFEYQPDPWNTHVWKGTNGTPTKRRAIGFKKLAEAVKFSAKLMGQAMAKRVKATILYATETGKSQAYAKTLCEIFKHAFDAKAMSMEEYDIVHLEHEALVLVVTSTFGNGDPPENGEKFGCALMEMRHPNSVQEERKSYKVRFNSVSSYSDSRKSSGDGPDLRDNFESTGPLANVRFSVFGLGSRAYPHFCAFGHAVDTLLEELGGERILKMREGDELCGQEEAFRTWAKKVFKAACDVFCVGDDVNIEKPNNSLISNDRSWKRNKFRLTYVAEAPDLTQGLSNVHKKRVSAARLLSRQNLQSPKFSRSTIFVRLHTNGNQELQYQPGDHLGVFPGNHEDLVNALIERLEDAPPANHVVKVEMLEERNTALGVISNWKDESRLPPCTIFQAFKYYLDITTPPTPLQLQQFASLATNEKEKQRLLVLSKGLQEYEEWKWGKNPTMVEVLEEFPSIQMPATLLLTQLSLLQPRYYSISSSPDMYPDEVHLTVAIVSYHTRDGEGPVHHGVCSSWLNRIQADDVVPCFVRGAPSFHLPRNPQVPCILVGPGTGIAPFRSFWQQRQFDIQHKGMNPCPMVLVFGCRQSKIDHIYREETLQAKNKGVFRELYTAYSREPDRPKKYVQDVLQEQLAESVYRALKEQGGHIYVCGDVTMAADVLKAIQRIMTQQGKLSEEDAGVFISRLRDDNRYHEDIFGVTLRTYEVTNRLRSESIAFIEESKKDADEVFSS

nNOS activity (NO synthesis, oxyhemoglobin assay) of 2.0 μM nNOS against increasing CaM concentration; CaM concentration at maximal activation: 2.4 µM
Substance: Human calmodulin (CaM), N-terminal His6-TEV tag removed (from UniProt P0DP23 1-149) (natural protein)
